Consider 6 molecules from publication PMC11861601 (2025).

Like-named read-outs stand apart in the source and are kept apart here.

Usually Kd stands for the constant that tells how readily two partners part at equilibrium. A higher Kd goes with weaker binding.

Test [1] concerns the target T1, His-tagged full-length N-MYC (human, UniProt P04198 1-464).
T1 chain: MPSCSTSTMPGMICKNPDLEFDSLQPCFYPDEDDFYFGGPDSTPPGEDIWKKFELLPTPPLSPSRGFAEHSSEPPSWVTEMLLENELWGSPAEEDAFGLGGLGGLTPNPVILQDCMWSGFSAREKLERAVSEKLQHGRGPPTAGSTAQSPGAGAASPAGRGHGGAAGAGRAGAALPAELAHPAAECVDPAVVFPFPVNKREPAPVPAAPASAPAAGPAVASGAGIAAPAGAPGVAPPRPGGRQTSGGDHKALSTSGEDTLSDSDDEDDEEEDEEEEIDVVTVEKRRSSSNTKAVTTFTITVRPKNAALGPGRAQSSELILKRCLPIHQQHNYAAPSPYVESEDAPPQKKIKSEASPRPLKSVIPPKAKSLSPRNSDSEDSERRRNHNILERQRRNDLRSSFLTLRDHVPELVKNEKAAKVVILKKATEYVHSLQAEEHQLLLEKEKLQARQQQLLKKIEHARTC
Briefly: SPR. On the technique in general: In SPR one partner is held on a chip, and binding of the other changes the refractive index at the surface.

Test [2] addresses T2, His-tagged full-length c-MYC (human, UniProt P01106-1 1-439). Briefly: SPR.
Test [3] deals with T3, His-tagged MAX (human, UniProt P61244 1-160). The test is described as follows: SPR; repeat.
For test [4], the target named is T3, His-tagged MAX. Briefly: SPR.
In test [5] the target is His-tagged C-terminal c-MYC (human). Briefly: SPR.
For test [6], the target named is T2, His-tagged full-length c-MYC. Briefly: SPR. This is another data set of the same source.

T3 sequence (P61244 whole entry): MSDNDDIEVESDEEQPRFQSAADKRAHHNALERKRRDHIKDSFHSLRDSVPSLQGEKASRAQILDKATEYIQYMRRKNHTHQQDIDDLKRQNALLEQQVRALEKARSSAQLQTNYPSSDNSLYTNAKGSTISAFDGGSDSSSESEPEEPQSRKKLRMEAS
T2 sequence (P01106 16-454): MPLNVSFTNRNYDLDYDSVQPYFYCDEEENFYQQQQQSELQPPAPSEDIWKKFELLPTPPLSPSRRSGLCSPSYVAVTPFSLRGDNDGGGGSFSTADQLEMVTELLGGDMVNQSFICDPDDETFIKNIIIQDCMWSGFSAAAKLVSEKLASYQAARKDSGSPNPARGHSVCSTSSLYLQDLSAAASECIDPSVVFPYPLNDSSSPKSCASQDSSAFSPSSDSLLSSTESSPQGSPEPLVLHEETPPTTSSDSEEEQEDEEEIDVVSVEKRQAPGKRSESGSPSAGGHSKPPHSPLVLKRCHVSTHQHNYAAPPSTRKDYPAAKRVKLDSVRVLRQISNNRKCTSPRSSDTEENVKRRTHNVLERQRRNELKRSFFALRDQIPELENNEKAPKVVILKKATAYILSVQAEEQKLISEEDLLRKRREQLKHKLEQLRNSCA
Chain of His-tagged C-terminal c-MYC (human) (chain, as listed by the source): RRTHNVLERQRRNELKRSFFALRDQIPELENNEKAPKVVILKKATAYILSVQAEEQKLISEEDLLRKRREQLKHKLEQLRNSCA

B1: Lon N-terminal domain peptide (aa 1-245) (domain or fragment)
chain: MNPERSERIEIPVLPLRDVVVYPHMVIPLFVGREKSIRCLEAAMDHDKKIMLVAQKEASTDEPGVNDLFTVGTVASILQMLKLPDGTVKVLVEGLQRARISALSDNGEHFSAKAEYLESPTIDEREQEVLVRTAISQFEGYIKLNKKIPPEVLTSLNSIDDPARLADTIAAHMPLKLADKQSVLEMSDVNERLEYLMAMMESEIDLLQVEKRIRNRVKKQMEKSQREYYLNEQMKAIQKELGEMD
In the case of B1, the Kd in test [1] is 402 nM; in test [2], 462 nM; with His-tagged MAX [3] it was 1690 nM; with His-tagged MAX [4], 294 nM.

B2: Lon N-terminal domain peptide (aa 1-245) (domain or fragment)
chain: B1 chain
modifications: His-tag omitted. The paper does not print the limits of Origene TP762404. Limits follow the paper's modelled C-terminal part, c-MYC aa 356-439 in 439-aa numbering, shifted by +15 to the 454-aa entry (bHLH-leucine zipper to the C-terminus). The bought construct may start earlier.
In the case of B2, the Kd in test [5] was 495 nM.

B3: recombinant Escherichia coli Lon protease (aa 1-778) (enzyme)
chain: MNPERSERIEIPVLPLRDVVVYPHMVIPLFVGREKSIRCLEAAMDHDKKIMLVAQKEASTDEPGVNDLFTVGTVASILQMLKLPDGTVKVLVEGLQRARISALSDNGEHFSAKAEYLESPTIDEREQEVLVRTAISQFEGYIKLNKKIPPEVLTSLNSIDDPARLADTIAAHMPLKLADKQSVLEMSDVNERLEYLMAMMESEIDLLQVEKRIRNRVKKQMEKSQREYYLNEQMKAIQKELGEMDDAPDENEALKRKIDAAKMPKEAKEKAEAELQKLKMMSPMSAEATVVRGYIDWMVQVPWNARSKVKKDLRQAQEILDTDHYGLERVKDRILEYLAVQSRVNKIKGPILCLVGPPGVGKTSLGQSIAKATGRKYVRMALGGVRDEAEIRGHRRTYIGSMPGKLIQKMAKVGVKNPLFLLDEIDKMSSDMRGDPASALLEVLDPEQNVAFSDHYLEVDYDLSDVMFVATSNSMNIPAPLLDRMEVIRLSGYTEDEKLNIAKRHLLPKQIERNALKKGELTVDDSAIIGIIRYYTREAGVRGLEREISKLCRKAVKQLLLDKSLKHIEINGDNLHDYLGVQRFDYGRADNENRVGQVTGLAWTEVGGDLLTIETACVPGKGKLTYTGSLGEVMQESIQAALTVVRARAEKLGINPDFYEKRDIHVHVPEGATPKDGPSAGIAMCTALVSCLTGNPVRADVAMTGEITLRGQVLPIGGLKEKLLAAHRGGIKTVLIPFENKRDLEEIPDNVIADLDIHPVKRIEEVLTLALQNEPSGM
modifications: His-tag omitted. The paper does not print the limits of Origene TP762404. Limits follow the paper's modelled C-terminal part, c-MYC aa 356-439 in 439-aa numbering, shifted by +15 to the 454-aa entry (bHLH-leucine zipper to the C-terminus). The bought construct may start earlier.
In the case of B3, the Kd in test [5] is 398 nM. The Kd values of the last two molecules are within 1.5-fold of each other.

B4: recombinant Escherichia coli Lon protease (aa 1-778) (enzyme)
chain: B3 chain
As to B4, the Kd in test [1] stood at 332 nM; in test [2] it was 382 nM; with His-tagged MAX [3] it was 174 nM; with His-tagged MAX [4] it was 164 nM.

B5: Lon peptidase domain peptide (aa 581-778) (domain or fragment)
chain: VQRFDYGRADNENRVGQVTGLAWTEVGGDLLTIETACVPGKGKLTYTGSLGEVMQESIQAALTVVRARAEKLGINPDFYEKRDIHVHVPEGATPKDGPSAGIAMCTALVSCLTGNPVRADVAMTGEITLRGQVLPIGGLKEKLLAAHRGGIKTVLIPFENKRDLEEIPDNVIADLDIHPVKRIEEVLTLALQNEPSGM
In test [6], B5 came in with a Kd of 849 nM.

B6: Lon AAA+ domain peptide (aa 241-584) (domain or fragment)
chain: LGEMDDAPDENEALKRKIDAAKMPKEAKEKAEAELQKLKMMSPMSAEATVVRGYIDWMVQVPWNARSKVKKDLRQAQEILDTDHYGLERVKDRILEYLAVQSRVNKIKGPILCLVGPPGVGKTSLGQSIAKATGRKYVRMALGGVRDEAEIRGHRRTYIGSMPGKLIQKMAKVGVKNPLFLLDEIDKMSSDMRGDPASALLEVLDPEQNVAFSDHYLEVDYDLSDVMFVATSNSMNIPAPLLDRMEVIRLSGYTEDEKLNIAKRHLLPKQIERNALKKGELTVDDSAIIGIIRYYTREAGVRGLEREISKLCRKAVKQLLLDKSLKHIEINGDNLHDYLGVQRF
For B6, binding in test [6] was put at a Kd of 534 nM.
